T1: Factor VIIa (purified human, Enzyme Research Laboratories) (human, UniProt P08709 61-466)
T1 sequence (looked up): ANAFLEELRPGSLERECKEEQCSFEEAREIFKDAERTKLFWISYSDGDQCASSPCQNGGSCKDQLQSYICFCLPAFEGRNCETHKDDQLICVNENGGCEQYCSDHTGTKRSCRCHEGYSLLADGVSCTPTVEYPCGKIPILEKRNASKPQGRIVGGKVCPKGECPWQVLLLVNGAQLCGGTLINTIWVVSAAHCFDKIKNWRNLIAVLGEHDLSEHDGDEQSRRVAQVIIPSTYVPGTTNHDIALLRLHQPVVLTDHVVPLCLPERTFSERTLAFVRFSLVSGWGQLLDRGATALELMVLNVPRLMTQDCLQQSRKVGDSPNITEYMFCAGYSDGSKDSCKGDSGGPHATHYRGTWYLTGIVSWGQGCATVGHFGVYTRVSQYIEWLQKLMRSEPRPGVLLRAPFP


Molecular target: T1, Factor VIIa (purified human, Enzyme …)
Test: Titration of cofactor against 5 nM Factor VIIa; increase in amidolytic activity (Chromozym t-PA); no phospholipid vesicles
Experimental: After 10 min at room temperature, Chromozym t-PA was added (1 mM final) and the initial rate of substrate hydrolysis was measured at 405 nm using a microplate reader (Molecular Devices, Menlo Park, Calif.). […] Kinetic parameters were calculated using Prism 4 (GraphPad Software, San Diego, Calif.).

| Kd [nM] | Binder |
| --- | --- |
| 7.05 | sTF-annexin V chimeric protein (other, Expressed in the E. coli periplasm from pET-22b(+), whose signal peptide is removed; also called sTF-annV; sTF-AnnV) GTTNTVAAYNLTWKSTNFKTILEWEPKPVNQVYTVQISTKSGDWKSKCFYTTDTECDLTDEIVKDVKQTYLARVFSYPAGNVESTGSAGEPLYENSPEFTPYLETNLGQPTIQSFEQVGTKVNVTVEDERTLVRRNNTFLSLRDVFGKDLIYTLYYWKSSSSGKKTAKTNTNEFLIDVDKGENYCFSVQAVIPSRTVNRKSTDSPVECMGQEKGEFREGGGGSGGGGSGGGGSAQVLRGTVTDFPGFDERADAETLRKAMKGLGTDEESILTLLTSRSNAQRQEISAAFKTLFGRDLLDDLKSELTGKFEKLIVALMKPSRLYDAYELKHALKGAGTNEKVLTEIIASRTPEELRAIKQVYEEEYGSSLEDDVVGDTSGYYQRMLVVLLQANRDPDAGIDEAQVEQDAQALFQAGELKWGTDEEKFITIFGTRSVSHLRKVFDKYMTISGFQIEETIDRETSGNLEQLLLAVVKSIRSIPAYLAETLYYAMKGAGTDDHTLIRVMVSRSEIDLFNIRKEFRKNFATSLYSMIKGDTSGDYKKALLLLCGEDDPLEHHHHHH |
| 8.17 | recombinant sTF (TF2-219) (receptor, also called soluble TF; soluble Tissue Factor) GTTNTVAAYNLTWKSTNFKTILEWEPKPVNQVYTVQISTKSGDWKSKCFYTTDTECDLTDEIVKDVKQTYLARVFSYPAGNVESTGSAGEPLYENSPEFTPYLETNLGQPTIQSFEQVGTKVNVTVEDERTLVRRNNTFLSLRDVFGKDLIYTLYYWKSSSSGKKTAKTNTNEFLIDVDKGENYCFSVQAVIPSRTVNRKSTDSPVECMGQEKGEFRE |
